1 protein from PMC9969106 can be followed below.

What all share (details): glycan lost; control: GlyRα1WT
The nature of data set [1]: whole cell fraction western blot, normalized to pan-cadherin. A general note: A western blot detects proteins with antibodies after separation by electrophoresis.
Data set [2] can be described thus: whole-cell patch-clamp, 100 μM glycine. (In general: In patch-clamp work, channel activity is measured electrically.)
Data set [3] can be described thus: whole-cell patch-clamp, saturating 1 mM glycine.
Data set [4] in a line: whole-cell patch-clamp dose-response, HEK293.

B1: GlyRα1: N38Q (protein)
parent chain: MYSFNTLRLYLWETIVFFSLAASKEAEAARSAPKPMSPSDFLDKLMGRTSGYDARIRPNFKGPPVNVSCNIFINSFGSIAETTMDYRVNIFLRQQWNDPRLAYNEYPDDSLDLDPSMLDSIWKPDLFFANEKGAHFHEITTDNKLLRISRNGNVLYSIRITLTLACPMDLKNFPMDVQTCIMQLESFGYTMNDLIFEWQEQGAVQVADGLTLPQFILKEEKDLRYCTKHYNTGKFTCIEARFHLERQMGYYLIQMYIPSLLIVILSWISFWINMDAAPARVGLGITTVLTMTTQSSGSRASLPKVSYVKAIDIWMAVCLLFVFSALLEYAAVNFVSRQHKELLRFRRKRRHHKSPMLNLFQEDEAGEGRFNFSAYGMGPACLQAKDGISVKGANNSNTTNPPPAPSKSPEEMRKLFIQRAKKIDKISRIGFPMAFLIFNMFYWIIYKIVRREDVHNQ
With B1, the “expression_or_secretion, other: relative expression” value in data set [1] is on record as “no change, 0.57 ± 0.13 vs 1.0 ± 0.16, GlyRα1WT 1.0 ± 0.16; GlyRα1N38Q 0.57 ± 0.13; p = 0.1118”. The “other: channel current, other: current amplitude” value in data set [2] is given as “decreases, 1.0 ± 0.3 vs 3.6 ± 0.5”; in data set [3], “no change, 5.0 ± 0.8 vs 6.0 ± 0.6”. The “other: glycine potency, EC50” value in data set [4] was “decreases, 206 vs 85”.
